Patent US20250000946A1 (WUXI BIOLOGICS IRELAND, published 2025)

T1: Human IL-2Rα/β/γ complex (high affinity IL-2 receptor) (human, UniProt P01589 22-272; P14784 27-551; P31785 23-369)
T1 construct: whole, on cells
T1 sequence (looked up) 1: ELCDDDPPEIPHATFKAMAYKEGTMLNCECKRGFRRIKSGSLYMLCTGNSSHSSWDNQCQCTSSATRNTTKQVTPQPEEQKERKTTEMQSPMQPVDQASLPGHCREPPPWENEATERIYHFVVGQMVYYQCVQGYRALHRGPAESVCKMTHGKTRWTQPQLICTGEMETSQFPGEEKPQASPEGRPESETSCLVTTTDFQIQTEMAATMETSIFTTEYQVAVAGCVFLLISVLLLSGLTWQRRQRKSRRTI
T1 sequence (looked up) 2: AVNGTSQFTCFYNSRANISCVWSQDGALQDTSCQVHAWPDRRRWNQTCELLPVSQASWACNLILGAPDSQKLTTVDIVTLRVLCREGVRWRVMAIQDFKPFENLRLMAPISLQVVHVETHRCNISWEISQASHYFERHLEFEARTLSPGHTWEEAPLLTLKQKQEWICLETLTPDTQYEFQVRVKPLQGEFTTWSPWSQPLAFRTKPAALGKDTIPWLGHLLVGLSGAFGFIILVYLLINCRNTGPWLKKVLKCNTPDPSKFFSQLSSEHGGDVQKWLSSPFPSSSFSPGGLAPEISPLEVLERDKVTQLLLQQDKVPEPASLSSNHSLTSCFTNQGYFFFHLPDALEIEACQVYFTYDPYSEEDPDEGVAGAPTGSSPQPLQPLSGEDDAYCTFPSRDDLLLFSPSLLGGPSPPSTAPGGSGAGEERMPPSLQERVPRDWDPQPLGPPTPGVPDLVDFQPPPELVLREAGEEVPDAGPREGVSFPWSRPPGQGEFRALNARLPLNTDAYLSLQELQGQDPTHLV
T1 sequence (looked up) 3: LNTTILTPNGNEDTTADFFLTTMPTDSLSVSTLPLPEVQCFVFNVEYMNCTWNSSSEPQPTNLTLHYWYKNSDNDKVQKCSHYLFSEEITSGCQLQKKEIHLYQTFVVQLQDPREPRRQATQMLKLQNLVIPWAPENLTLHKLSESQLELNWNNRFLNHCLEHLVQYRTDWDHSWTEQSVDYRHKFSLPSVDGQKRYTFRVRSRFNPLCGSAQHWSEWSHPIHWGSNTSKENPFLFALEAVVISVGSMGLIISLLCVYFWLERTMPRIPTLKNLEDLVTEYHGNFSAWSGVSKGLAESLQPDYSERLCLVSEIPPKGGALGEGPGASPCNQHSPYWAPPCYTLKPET

T2: Human IL-2Rβ/γ (intermediate affinity IL-2 receptor) (human, UniProt P14784 27-551; P31785 23-369)
T2 sequence (looked up) 1: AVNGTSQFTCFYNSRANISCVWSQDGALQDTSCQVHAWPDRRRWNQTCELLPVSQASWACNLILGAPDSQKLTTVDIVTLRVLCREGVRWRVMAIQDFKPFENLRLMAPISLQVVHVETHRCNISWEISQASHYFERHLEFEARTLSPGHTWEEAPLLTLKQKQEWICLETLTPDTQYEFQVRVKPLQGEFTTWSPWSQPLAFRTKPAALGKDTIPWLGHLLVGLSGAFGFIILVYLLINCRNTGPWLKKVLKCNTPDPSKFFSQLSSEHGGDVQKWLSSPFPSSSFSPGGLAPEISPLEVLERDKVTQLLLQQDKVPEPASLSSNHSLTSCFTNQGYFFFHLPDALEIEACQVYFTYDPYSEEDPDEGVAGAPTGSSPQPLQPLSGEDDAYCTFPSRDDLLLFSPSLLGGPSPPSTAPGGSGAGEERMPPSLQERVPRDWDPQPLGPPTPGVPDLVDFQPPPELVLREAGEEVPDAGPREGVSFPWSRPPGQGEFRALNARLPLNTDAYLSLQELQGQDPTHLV
T2 sequence (looked up) 2: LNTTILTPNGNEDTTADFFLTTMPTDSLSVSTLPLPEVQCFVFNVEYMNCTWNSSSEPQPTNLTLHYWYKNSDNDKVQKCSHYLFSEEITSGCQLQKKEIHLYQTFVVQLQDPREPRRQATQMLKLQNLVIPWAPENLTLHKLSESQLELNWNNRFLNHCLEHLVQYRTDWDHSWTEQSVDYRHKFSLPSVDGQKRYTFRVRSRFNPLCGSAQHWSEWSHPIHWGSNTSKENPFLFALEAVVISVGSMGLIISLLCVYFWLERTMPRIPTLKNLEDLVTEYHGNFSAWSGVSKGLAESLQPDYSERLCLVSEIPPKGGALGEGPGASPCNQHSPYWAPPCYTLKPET


What was measured:
[1] = target: T1, Human IL-2Rα/β/γ complex (high affinity …); experiment: FACS, NK92 cells
Method in brief: (§1)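 Cells: HH (IL-2Rβ/γ), NK92 and MJ20 (IL-2Rα/β/γ). 30 min 4° C. with IL-2/Fc at indicated concentrations; PE-anti-human Fc 30 min 4° C.; FACS MFI.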

[2] = target: T1, Human IL-2Rα/β/γ complex (high affinity …); experiment: cell-based or functional assay
[3] = target: T2, Human IL-2Rβ/γ (intermediate affinity …); experiment: cell-based or functional assay
[4] = target: T2, Human IL-2Rβ/γ (intermediate affinity …); experiment: FACS, HH cells
Procedure: (§2) Human cutaneous T cell lymphoma HH cells, malignant non-Hodgkin's lymphoma NK92 cells and cutaneous T cell lymphoma MJ20 cells were used for binding assay. They both constitutively express IL-2Rβ (CD122) and […] (CD132), and NK92 and MJ20 also expresses IL-2Rα (CD25). HH, NK92 and MJ20 cells were cultured following ATCC guidance, then transferred to a 96-plate for binding analysis. Cells were incubated with IL-2/Fc fusion proteins at the indicated concentrations for 30 min at 4° C. to avoid internalization. Binding was detected by 2nd antibody of PE-anti-human Fc at 4° C. for another 30 min. The median fluorescence intensity (MFI) on HH and NK92 cells was measured using FACS.

[5] = target: T1, Human IL-2Rα/β/γ complex (high affinity …); experiment: FACS, NK92 cells; EC50 fold vs T2U0.E44-1
Method in brief: as §1

[6] = target: T2, Human IL-2Rβ/γ (intermediate affinity …); experiment: FACS, HH cells; EC50 fold vs T2U0.E44-1
Procedure: as §2

Row | EC50 [1] | Human Treg Potency EC50 (STAT5 phosphorylation) [2] | Human Treg Potency reduction [2] | Human CD8+ T Potency EC50 (STAT5 phosphorylation) [3] | Human CD8+ T Potency reduction [3] | EC50 [4] | Affinity reduction [5] | Affinity reduction [6] | Binder
1 | 2740 nM | 54.9 nM | 4620 fold | 312 nM | 30.3 fold | ~470 nM | 91.6 fold | 18.8 fold | W3XX115-T2U0.E44-15.uIgG4V1 (Fc fusion, IL-2 del STLT and F42V; E44 format, IgG4) APTSSSTKKTQLQLEHLLLDLQMILNGINNYKNPKLTRMLTVKFYMPKKATELKHLQCLEEELKPLEEVLNLAQSKNFHLRPRDLISNINVIVLELKGSETTFMCEYADETATIVEFLNRWITFCQSIIESKYGPPCPPCPAPEFLGGPSVFLFPPKPKDTLMISRTPEVTCVVVDVSQEDPEVQFNWYVDGVEVHNAKTKPREEQFNSTYRVVSVLTVLHQDWLNGKEYKCKVSNKGLPSSIEKTISKAKGQPREPQVYTLPPCQEEMTKNQVSLWCLVKGFYPSDIAVEWESNGQPENNYKTTPPVLDSDGSFFLYSRLTVDKSRWQEGNVFSCSVMHEALHNHYTQKSLSLSLG heavy: EIQLQQSGPELVKPGASVKVSCKASGYSFTDYNMYWVKQSHGESLEWIGYIDPYNGGTRYNQKFKGKATLTVDKSSSTAFMHLNSLTSEDSAVYYCARNGHWDGAWFAYWGQGTLVTVSAASTKGPSVFPLAPCSRSTSESTAALGCLVKDYFPEPVTVSWNSGALTSGVHTFPAVLQSSGLYSLSSVVTVPSSSLGTKTYTCNVDHKPSNTKVDKRVESKYGPPCPPCPAPEFLGGPSVFLFPPKPKDTLMISRTPEVTCVVVDVSQEDPEVQFNWYVDGVEVHNAKTKPREEQFNSTYRVVSVLTVLHQDWLNGKEYKCKVSNKGLPSSIEKTISKAKGQPREPQVCTLPPSQEEMTKNQVSLSCAVKGFYPSDIAVEWESNGQPENNYKTTPPVLDSDGSFFLVSRLTVDKSRWQEGNVFSCSVMHEALHNHYTQKSLSLSLG light: DIQMNQSPSSLSASLGDTITITCHASQNINVWLSWYQQKPGNIPKLLIYKASNLHTGVPSRFSGSRSGTGFTLTISSLQPEDIATYYCHQGQSYPFTFGSGTKLEIKRTVAAPSVFIFPPSDEQLKSGTASVVCLLNNFYPREAKVQWKVDNALQSGNSQESVTEQDSKDSTYSLSSTLTLSKADYEKHKVYACEVTHQGLSSPVTKSFNRGEC
2 | ~310 nM | 31.2 nM | 2620 fold | 251 nM | 24.4 fold | 472 nM | 44.3 fold | 18.9 fold | W3XX115-T2U0.E44-16.uIgG4V1 (Fc fusion, IL-2 del STLT and F42I; E44 format, IgG4) APTSSSTKKTQLQLEHLLLDLQMILNGINNYKNPKLTRMLTIKFYMPKKATELKHLQCLEEELKPLEEVLNLAQSKNFHLRPRDLISNINVIVLELKGSETTFMCEYADETATIVEFLNRWITFCQSIIESKYGPPCPPCPAPEFLGGPSVFLFPPKPKDTLMISRTPEVTCVVVDVSQEDPEVQFNWYVDGVEVHNAKTKPREEQFNSTYRVVSVLTVLHQDWLNGKEYKCKVSNKGLPSSIEKTISKAKGQPREPQVYTLPPCQEEMTKNQVSLWCLVKGFYPSDIAVEWESNGQPENNYKTTPPVLDSDGSFFLYSRLTVDKSRWQEGNVFSCSVMHEALHNHYTQKSLSLSLG heavy: EIQLQQSGPELVKPGASVKVSCKASGYSFTDYNMYWVKQSHGESLEWIGYIDPYNGGTRYNQKFKGKATLTVDKSSSTAFMHLNSLTSEDSAVYYCARNGHWDGAWFAYWGQGTLVTVSAASTKGPSVFPLAPCSRSTSESTAALGCLVKDYFPEPVTVSWNSGALTSGVHTFPAVLQSSGLYSLSSVVTVPSSSLGTKTYTCNVDHKPSNTKVDKRVESKYGPPCPPCPAPEFLGGPSVFLFPPKPKDTLMISRTPEVTCVVVDVSQEDPEVQFNWYVDGVEVHNAKTKPREEQFNSTYRVVSVLTVLHQDWLNGKEYKCKVSNKGLPSSIEKTISKAKGQPREPQVCTLPPSQEEMTKNQVSLSCAVKGFYPSDIAVEWESNGQPENNYKTTPPVLDSDGSFFLVSRLTVDKSRWQEGNVFSCSVMHEALHNHYTQKSLSLSLG light: DIQMNQSPSSLSASLGDTITITCHASQNINVWLSWYQQKPGNIPKLLIYKASNLHTGVPSRFSGSRSGTGFTLTISSLQPEDIATYYCHQGQSYPFTFGSGTKLEIKRTVAAPSVFIFPPSDEQLKSGTASVVCLLNNFYPREAKVQWKVDNALQSGNSQESVTEQDSKDSTYSLSSTLTLSKADYEKHKVYACEVTHQGLSSPVTKSFNRGEC
3 | 522 nM | 0.53 nM | 44.5 fold | 185 nM | 18 fold | 398 nM | 74.6 fold | 15.9 fold | W3XX115-T2U0.E44-19.uIgG4V1 (Fc fusion, IL-2 del STLT and F42M; E44 format, IgG4) APTSSSTKKTQLQLEHLLLDLQMILNGINNYKNPKLTRMLTMKFYMPKKATELKHLQCLEEELKPLEEVLNLAQSKNFHLRPRDLISNINVIVLELKGSETTFMCEYADETATIVEFLNRWITFCQSIIESKYGPPCPPCPAPEFLGGPSVFLFPPKPKDTLMISRTPEVTCVVVDVSQEDPEVQFNWYVDGVEVHNAKTKPREEQFNSTYRVVSVLTVLHQDWLNGKEYKCKVSNKGLPSSIEKTISKAKGQPREPQVYTLPPCQEEMTKNQVSLWCLVKGFYPSDIAVEWESNGQPENNYKTTPPVLDSDGSFFLYSRLTVDKSRWQEGNVFSCSVMHEALHNHYTQKSLSLSLG heavy: EIQLQQSGPELVKPGASVKVSCKASGYSFTDYNMYWVKQSHGESLEWIGYIDPYNGGTRYNQKFKGKATLTVDKSSSTAFMHLNSLTSEDSAVYYCARNGHWDGAWFAYWGQGTLVTVSAASTKGPSVFPLAPCSRSTSESTAALGCLVKDYFPEPVTVSWNSGALTSGVHTFPAVLQSSGLYSLSSVVTVPSSSLGTKTYTCNVDHKPSNTKVDKRVESKYGPPCPPCPAPEFLGGPSVFLFPPKPKDTLMISRTPEVTCVVVDVSQEDPEVQFNWYVDGVEVHNAKTKPREEQFNSTYRVVSVLTVLHQDWLNGKEYKCKVSNKGLPSSIEKTISKAKGQPREPQVCTLPPSQEEMTKNQVSLSCAVKGFYPSDIAVEWESNGQPENNYKTTPPVLDSDGSFFLVSRLTVDKSRWQEGNVFSCSVMHEALHNHYTQKSLSLSLG light: DIQMNQSPSSLSASLGDTITITCHASQNINVWLSWYQQKPGNIPKLLIYKASNLHTGVPSRFSGSRSGTGFTLTISSLQPEDIATYYCHQGQSYPFTFGSGTKLEIKRTVAAPSVFIFPPSDEQLKSGTASVVCLLNNFYPREAKVQWKVDNALQSGNSQESVTEQDSKDSTYSLSSTLTLSKADYEKHKVYACEVTHQGLSSPVTKSFNRGEC
